The target in assay [1] is GST-fused pK15 cytoplasmic tail (pK15 CT WT), phosphorylated in vitro by Src (UniProt Q9QR69). In words: AlphaLISA. Conditions: read off a plot.
In assay [2] the target is GST-pK15 CT N2 truncation mutant, phosphorylated in vitro by 2xStrep-Src (UniProt Q9QR69). In words: AlphaLISA. Conditions: parent: est. 17000; read off a plot.
In assay [3] the test system is PLCγ1 tSH2 domain (Src-mediated phosphorylation, Y^783). Put plainly: in vitro Src kinase assay, PLCγ1 tSH2 Y783 phosphorylation. The assay is classed as biochemical. Conditions: 0.6 μM tSH2, 0.085 μM Src, 1.25–5 μM peptide or fixed 5.0 μM; 37°C; 1 hour or 45 min (method); pY783 Western blot. Here is the method: Fig 7 The pK15 CT domain enhances Src-mediated phosphorylation of the PLCγ1 tSH2 domain. (A) The purified PLCγ1 tSH2 domain (0.6 μM) was incubated with limiting amounts (0.085 μM) of recombinant purified Src kinase expressed in insect cells in the presence of increasing concentrations (1.25–5 μM) of phosphorylated peptides representing the last 12 (pK15 12mer) or 35 (pK15 35mer) amino acids of the pK15 cytoplasmic domain for 1 hour at 37°C. The reaction was stopped using SDS sample buffer and analysed by SDS-PAGE and Western blot using an antibody to the PLCγ1 pY^783 residue (top panel) or to the His tag on the recombinant tSH2 domain (bottom panel). (B) Same as above, except that a fixed concentration (5.0 μM) of the 12mer peptide, the 35mer peptide or the pK15 truncation construct GST-pK15 CT^N2 [51] were used. The increased phosphorylation of the tSH2 domain in the presence of the 35mer peptide and pK15 CT^N2 can be seen. (C) Increasing concentrations of the phosphorylated pK15 12mer peptide were used to inhibit the increased src-mediated phosphorylation of tSH2 induced by 2.5 μM of the pK15 35mer peptide. Experimental conditions were as in panel A.
To test the impact of a pK15 CT fragment (pK15 CT^N2) or phosphorylated pK15 peptides representing the last 12 (DDLp[…]) or 35 ([…]pYEEVLFRN) amino acids of pK15 CT on the Src-mediated phosphorylation of the PLCγ1 tSH2 domain, GST-pK15CT^N2 was first phosphorylated with Src in vitro as described in the preceding paragraph. Phosphorylated GST-pK15 CT^N2 or the phosphorylated pK15 peptides, suspended in 50 mM Tris pH7.4, 300 mM NaCl, 1 mM DTT, were then added to the purified recombinant tSH2 domain (0.6 μM) together with a limiting amount of recombinant Src kinase (0.085 μM) in kinase buffer (20 mM Tris pH7.4, 20 mM NaCl, 1 mM DTT, 10 mM MgCl2, 0.2 mM ATP, 0.5 mM Sodium orthovanadate, 0.5 mM β-glycerophosphate) and the reaction allowed to proceed for 45 min. The reaction mix was then analysed by Western blot using an antibody to the phosphorylated Y^783 in the linker region of the PLCγ1 tSH2 domain and an antibody to the 5x His tag. To test the inhibitory effect of the phosphorylated 12mer pK15 peptide on the enhancement of PLCγ1 tSH2 domain phosphorylation induced by the pK15 35mer peptide, increasing concentrations (1.25–5.0 μM) of the 12mer peptide were added to a reaction mix containing the purified recombinant tSH2 domain (2.5 μM), the phosphorylated pK15 35mer (2.5 μM), and recombinant Src kinase (0.085 μM). Following a 45 min incubation at 37°C, the reaction mixture was analysed by Western blot as above.

The target in assay [4] is T1, PLCγ1 tSH2 R694L (aa 545-790) (UniProt P19174 545-790, R694L).
T1 construct: source: E. coli BL21(DE3), purified (HisTrap, 3C cleavage, SEC)
T1 sequence (looked up): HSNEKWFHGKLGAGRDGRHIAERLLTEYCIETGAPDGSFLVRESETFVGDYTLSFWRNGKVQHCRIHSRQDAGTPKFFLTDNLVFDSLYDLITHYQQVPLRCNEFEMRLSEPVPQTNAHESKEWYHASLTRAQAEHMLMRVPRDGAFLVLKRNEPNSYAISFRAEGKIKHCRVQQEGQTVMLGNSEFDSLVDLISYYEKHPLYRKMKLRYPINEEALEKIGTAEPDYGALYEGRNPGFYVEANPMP
In words: microfluidic diffusional sizing (Fluidity One-W); 200 nM 5,6-FAM peptide held constant, PLCγ1 domains varied from 0 nM to 8000 nM, room temperature, 100 mM MES, 150 mM NaCl, 3 mM TCEP, pH 6.5; hydrodynamic radius fitted; triplicate. Conditions: both partners purified.

Assay [5] addresses T2, PLCγ1 tSH2 domain (aa 545-790) (UniProt P19174 545-790).
T2 construct: also called WT tSH2; source: E. coli BL21(DE3), purified (HisTrap, 3C cleavage, SEC)
T2 sequence (looked up): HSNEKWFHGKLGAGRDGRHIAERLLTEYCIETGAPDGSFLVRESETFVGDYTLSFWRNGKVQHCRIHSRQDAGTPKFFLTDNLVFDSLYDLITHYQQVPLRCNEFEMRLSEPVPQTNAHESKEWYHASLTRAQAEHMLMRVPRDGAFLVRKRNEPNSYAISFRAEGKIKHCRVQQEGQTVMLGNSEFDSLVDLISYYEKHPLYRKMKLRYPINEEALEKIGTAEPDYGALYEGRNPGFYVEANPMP
The description is as above. Conditions: both partners purified.

Assay [6] has as its target T3, PLCγ1 nSH2 domain (aa 545-662) (UniProt P19174 545-662).
T3 construct: 15N-labelled for the NMR titration; source: E. coli BL21(DE3), purified (HisTrap, 3C cleavage, SEC)
T3 sequence (looked up): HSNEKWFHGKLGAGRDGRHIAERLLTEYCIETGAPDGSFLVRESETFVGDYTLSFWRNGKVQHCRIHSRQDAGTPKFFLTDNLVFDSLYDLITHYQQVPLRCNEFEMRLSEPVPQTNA
The assay is described as above. Conditions: both partners purified.

Assay [7] concerns the target T4, PLCγ1 cSH2 domain (aa 668-790) (UniProt P19174 668-790).
T4 construct: PLCγ1 C-terminal SH2 domain with the cSH2-SH3 linker, residues 668-790; 15N-labelled for the NMR titration; also called cSH2 (668–790); source: E. coli BL21(DE3), purified (HisTrap, 3C cleavage, SEC)
T4 sequence (looked up): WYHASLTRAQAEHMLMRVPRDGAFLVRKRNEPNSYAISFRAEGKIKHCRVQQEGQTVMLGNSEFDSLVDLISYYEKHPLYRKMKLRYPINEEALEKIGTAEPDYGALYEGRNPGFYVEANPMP
The assay is described as above. To be noted: both partners purified.

The target of assay [8] is T5, PLCγ1 tSH2 R586L (aa 545-790) (UniProt P19174 545-790, R586L).
T5 construct: source: E. coli BL21(DE3), purified (HisTrap, 3C cleavage, SEC)
T5 sequence (looked up): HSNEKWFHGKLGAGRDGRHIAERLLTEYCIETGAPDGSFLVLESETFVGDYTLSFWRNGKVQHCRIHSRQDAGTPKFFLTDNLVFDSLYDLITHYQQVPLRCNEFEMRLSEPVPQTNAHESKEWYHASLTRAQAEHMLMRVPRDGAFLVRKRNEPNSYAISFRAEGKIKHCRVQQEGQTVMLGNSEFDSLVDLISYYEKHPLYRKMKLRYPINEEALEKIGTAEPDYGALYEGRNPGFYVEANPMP
The description is as above. Conditions: both partners purified.

The target of assay [9] is T6, GST-pK15 CT N2 truncation mutant, phosphorylated in vitro by 2xStrep-Src, Q9QR69.
T6 chain: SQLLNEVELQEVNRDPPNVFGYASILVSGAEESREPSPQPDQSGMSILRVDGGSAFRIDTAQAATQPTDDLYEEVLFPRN
In words: AlphaLISA. Conditions: chain shown with the change;, read off a plot.

Assay [10] addresses T7, GST-fused pK15 cytoplasmic tail (pK15 CT WT), phosphorylated in vitro by Src, Q9QR69.
T7 chain: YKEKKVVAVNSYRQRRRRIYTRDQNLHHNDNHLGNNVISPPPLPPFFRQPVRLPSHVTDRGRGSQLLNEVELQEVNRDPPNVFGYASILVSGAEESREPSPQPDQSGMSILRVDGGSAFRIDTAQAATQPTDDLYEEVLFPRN
Put plainly: AlphaLISA. To be noted: chain shown with the change;, read off a plot.

Non-standard residues stand in square brackets, D forms with d. No end group written: not given here. pY = N[C@@H](Cc1ccc(OP(=O)(O)O)cc1)C(=O)O

As to “His-tagged purified PLCγ1 SA (γ-specific array) R694L”, the response in [1] (parent: est. 4000) was determined as 1400.

With “His-tagged purified PLCγ1 tandem SH2 (tSH2) domain R586L; R694L”, in [1] (parent: est. 13000), the response came out at 350.

As for “His-tagged purified PLCγ1 SA (γ-specific array) R586L; R694L”, in assay [1] (parent: est. 4000), the response came to 700.

Turning to “His-tagged purified PLCγ1 tandem SH2 (tSH2) domain R694L”, the response in assay [1] (parent: est. 13000) is 850.

With “His-tagged purified PLCγ1 cSH2 domain R694L”, the results for the response in assay [1] (parent: est. 19000) and in assay [2] were 1000 and 250, respectively.

In the case of “SILRVDGGSAFRIDTAQAATQPTDDLpYEEVLFRN [pK15 35mer, phosphorylated pK15 peptide corresponding to the last 35 amino acids of pK15 CT]”, the “effect on Src-mediated phosphorylation of PLCγ1 tSH2” value in assay [3] is listed as “enhanced the Src-mediated phosphorylation of the PLCγ1 tSH2 domain in a dose dependent manner”.

B1: 5,6-FAM-labelled phosphorylated pK15 12mer peptide (peptide)
peptide: {5,6‑FAM}-DDL[pY]EEVLFPRN
notes: last 12 residues of KSHV pK15 cytoplasmic tail; also called 5,6-FAM-labelled pK15 (12mer); phosphorylated pK15 peptide; source: synthetic peptide, bought: Caslo ApS
Regarding B1, the Kd in assay [4] turned out to be 6320 ± 475 nM; in assay [5], 1500 ± 450 nM; in assay [6], 180 ± 43 nM; in [7] it was 166 ± 30 nM; in [8] it was 440 ± 77 nM.

B2: His-tagged purified PLCγ1 tandem SH2 (tSH2) domain R586L (protein)
chain: HSNEKWFHGKLGAGRDGRHIAERLLTEYCIETGAPDGSFLVLESETFVGDYTLSFWRNGKVQHCRIHSRQDAGTPKFFLTDNLVFDSLYDLITHYQQVPLRCNEFEMRLSEPVPQTNAHESKEWYHASLTRAQAEHMLMRVPRDGAFLVRKRNEPNSYAISFRAEGKIKHCRVQQEGQTVMLGNSEFDSLVDLISYYEKHPLYRKMKLRYPINEEALEKIGTAEPDYGALYEGRNPGFYVEANPMP
Consider B2, for which the response was found to be 12000 in assay [9] (parent: est. 14000) and 9800 in [10] (parent: est. 13000).

B3: His-tagged purified PLCγ1 SA (γ-specific array) R586L (protein)
chain: SIKNGILYLEDPVNHEWYPHYFVLTSSKIYYSEETSSDQGNEDEEEPKEVSSSTELHSNEKWFHGKLGAGRDGRHIAERLLTEYCIETGAPDGSFLVLESETFVGDYTLSFWRNGKVQHCRIHSRQDAGTPKFFLTDNLVFDSLYDLITHYQQVPLRCNEFEMRLSEPVPQTNAHESKEWYHASLTRAQAEHMLMRVPRDGAFLVRKRNEPNSYAISFRAEGKIKHCRVQQEGQTVMLGNSEFDSLVDLISYYEKHPLYRKMKLRYPINEEALEKIGTAEPDYGALYEGRNPGFYVEANPMPTFKCAVKALFDYKAQREDELTFIKSAIIQNVEKQEGGWWRGDYGGKKQLWFPSNYVEEMVNPVALEPEREHLDENSPLGDLLRGVLDVPACQIAIRPEGKNNRLFVFSISMASVAHWSLDVAADSQEELQDWVKKIREVAQ
B3: the response amounted to 300 in assay [9] (parent: est. 700) and 3800 in assay [10] (parent: est. 4000).

Values taken from article PMC8244865, “Recruitment of phospholipase Cγ1 to the non-structural membrane protein pK15 of Kaposi Sarcoma-associated herpesvirus promotes its Src-dependent phosphorylation” (PLoS Pathogens, 2021).
